Laboratory results: US11110171B2, “PD-1 related cancer therapy” (New York University, priority 2017, dated 2021)

Target: T1, SHP2PTP (GST tagged SHP2 catalytic domain) (Homo sapiens, UniProt Q06124)
T1 construct: a fixed amount of purified GST-WT SHP2 catalytic domain (0.2 ug) was incubated with variable concentrations; purchased Abcam 42578
T1 sequence (Q06124 247-517 limits assumed): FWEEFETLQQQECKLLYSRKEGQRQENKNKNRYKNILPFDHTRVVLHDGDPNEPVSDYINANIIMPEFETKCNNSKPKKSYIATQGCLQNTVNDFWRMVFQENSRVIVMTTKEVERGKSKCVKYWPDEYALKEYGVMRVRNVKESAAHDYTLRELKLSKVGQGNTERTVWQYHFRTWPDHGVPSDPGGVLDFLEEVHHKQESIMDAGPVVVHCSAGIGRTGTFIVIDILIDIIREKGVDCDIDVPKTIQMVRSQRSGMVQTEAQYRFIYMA
Assay: Malachite Green phosphatase assay of SHP2 catalytic domain with phosphotyrosyl peptide substrates
Type: biochemical
Settings: for increase of Km of SHP2-mediated dephosphorylation in the presence of SAP: SAP 1 uM or 10 uM
Method: FIG. 4. SAP inhibits SHP2 activity. […] At this time, the cells were harvested, and analyzed by immunoblotting, as indicated. (b) Jurkat T cells, transfected with siRNA for SAP (SAP KD) and non-targeting control (Control), were treated with pervanadate to induce maximal phosphorylation, followed by five serial washes, lysis and diafiltration to remove the drug and to exchange the buffer to a phosphatase-compatible buffer. SHP2^PTP (GST tagged SHP2 catalytic domain) was then added to the cell lysates for one hour, at the indicated concentrations, followed by immunoblotting with anti-phosphotyrosine antibody (4G10). (c) Densitometry values of all the phophotyrosine containing proteins shown at b. All values are relative to the baseline condition (without SHP2^PTP). […] (e-g) Enzymatic activity of SHP2^PTP was measured using a Malachite Green assay, with p60-SRC (e), SLAMF5 Y279 (f), CD3 Y142 (g), CD28 Y172 (h), and CD28 Y190 (i) peptides as substrates. Substrate titrations of SHP2P (dark circles) at baseline (control), or in the presence of SAP 1 uM (white circles) or SAP 10 uM (crossed circles) are shown. Curves are fitted using the Michelis-Menten equation and derived Km values are shown. The data points represent the mean of three measurements. (j) A diagram describing the shielding model. Data are represented as mean±SEM. * or ** represent significant differences between the denoted group and the anti-CD3 treated cells in a, or between SAP deficient cells and control cells in e; * <0.05, ** P<0.01, n=4, unpaired t test.
First, SAP could bind SHP2 and directly block the SHP2 catalytic site, or alternatively, SAP might not bind to SHP2, but rather could bind to its substrates and thereby block the interaction between SHP2 and its enzymatic substrates. […] To test the effect of SAP on SHP2 mediated dephosphorylation events, we measured SHP2-mediated dephosphorylation of p60-SRC Y416 (FIG. 4e), SLAMF5 Y279 (FIG. 4f), and CD3 Y142 (FIG. 4g) phosphotyrosyl peptides by Malachite Green assays. […]
To determine kinetic parameters, a fixed amount of purified GST-WT SHP2 catalytic domain was incubated with variable concentrations of substrates in (GenScript) in PTP assay buffer (Phosphatase assay kit; Upstate 17-313). […] release was quantified by adding Malachite Green (Malachite Green phosphatase detection kit; R&D DY996).
293T cells were transfected with pMSCV-SHP2, pMSCV empty vector, PD1-WT-GFP, PD1-Y223F-GFP or PD1-Y248F-GFP for 48 hours, followed by pervanadate treatment and immunoprecipitation using anti-GFP mAb-Agarose. The anti-GFP mAb-Agarose beads that were used for immunoprecipitation were then used for a pull-down of the SHP2/null transfected cells, and phosphatase activity on the beads was assessed using pNPP (Sigma). […]

B1: SAP: Recombinant human SAP (His tagged), signaling lymphocytic activation molecule-associated protein, purchased from Abcam (protein, UniProt O60880 1-128, looked up)
SH2 domain-containing protein …: MDAVAVYHGKISRETGEKLLLATGLDGSYLLRDSESVPGVYCLCVLYHGYIYTYRVSQTETGSWSAETAPGVHKRYFRKIKNLISAFQKPDQGIVIPLQYPVEKKSSARSTQGTTGIREDPDVCLKAP
modifications: His tag
Vmax of SHP2-mediated dephosphorylation in the presence of SAP (all three phosphotyrosyl peptides (p60-SRC, SLAMF5, CD3)): unaffected
increase of Km of SHP2-mediated dephosphorylation in the presence of SAP (substrate phosphorylated CD3 Y142 peptide): 2-3 fold
increase of Km of SHP2-mediated dephosphorylation in the presence of SAP (substrate phosphorylated SLAMF5 Y279 peptide): 2-3 fold
inhibition of SHP2-mediated dephosphorylation of the tail of CD28 (substrates CD28 Y173 and CD28 Y190 peptides): predominantly inhibited dephosphorylation of CD28 Y173 over CD28 Y190
